Values of other authors as cited in article PMC10368991.
pKd: −log10 of the molar value.

Biological target: LolB (Escherichia coli) (UniProt P61320)
Sequence (P61320 22-207): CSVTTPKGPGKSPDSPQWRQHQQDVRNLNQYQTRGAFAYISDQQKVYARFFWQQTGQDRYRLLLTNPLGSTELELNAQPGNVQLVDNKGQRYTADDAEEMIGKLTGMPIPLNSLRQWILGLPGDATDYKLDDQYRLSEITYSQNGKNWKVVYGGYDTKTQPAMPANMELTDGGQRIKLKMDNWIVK

Sequence of LolA (P61316 22-203): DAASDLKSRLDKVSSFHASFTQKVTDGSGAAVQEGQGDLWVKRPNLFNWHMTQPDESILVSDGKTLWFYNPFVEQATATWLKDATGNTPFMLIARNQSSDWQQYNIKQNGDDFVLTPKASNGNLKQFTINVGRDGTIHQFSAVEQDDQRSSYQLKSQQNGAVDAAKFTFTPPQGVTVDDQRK

## LolA (from UniProt P61316)
  pKd: 4.50
